Article PMC11260492

Target: RPA (native, unlabeled heterotrimer) (human, UniProt P27694;P15927;P35244 1-616;1-270;1-121)
Assay: FRET equilibrium titration

RPA (native, unlabeled heterotrimer), sequence (P27694 whole entry, chain 1 of 3): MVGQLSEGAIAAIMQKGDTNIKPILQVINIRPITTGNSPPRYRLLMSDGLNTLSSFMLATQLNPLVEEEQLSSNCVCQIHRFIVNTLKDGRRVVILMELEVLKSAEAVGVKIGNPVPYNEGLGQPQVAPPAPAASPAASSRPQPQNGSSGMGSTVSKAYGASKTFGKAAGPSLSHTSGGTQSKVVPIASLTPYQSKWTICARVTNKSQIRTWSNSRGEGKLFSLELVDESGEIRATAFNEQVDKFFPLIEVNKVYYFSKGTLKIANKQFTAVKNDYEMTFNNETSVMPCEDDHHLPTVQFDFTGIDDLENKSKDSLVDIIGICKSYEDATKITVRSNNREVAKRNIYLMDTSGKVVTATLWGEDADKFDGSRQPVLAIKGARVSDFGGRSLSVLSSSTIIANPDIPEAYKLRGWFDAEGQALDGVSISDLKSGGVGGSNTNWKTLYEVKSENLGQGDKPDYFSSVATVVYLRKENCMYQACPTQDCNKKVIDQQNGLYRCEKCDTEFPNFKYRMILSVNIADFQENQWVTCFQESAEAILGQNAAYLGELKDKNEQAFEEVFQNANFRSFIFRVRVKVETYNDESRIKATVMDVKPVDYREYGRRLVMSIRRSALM
RPA (native, unlabeled heterotrimer), sequence (P15927 whole entry, chain 2 of 3): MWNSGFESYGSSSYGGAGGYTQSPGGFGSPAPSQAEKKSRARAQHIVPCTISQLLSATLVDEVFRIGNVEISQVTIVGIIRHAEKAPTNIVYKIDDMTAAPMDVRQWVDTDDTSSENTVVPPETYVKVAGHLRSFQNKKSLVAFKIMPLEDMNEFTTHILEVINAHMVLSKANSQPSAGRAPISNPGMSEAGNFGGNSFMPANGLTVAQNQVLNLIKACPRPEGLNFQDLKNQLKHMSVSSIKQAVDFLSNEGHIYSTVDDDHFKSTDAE
RPA (native, unlabeled heterotrimer), sequence (P35244 whole entry, chain 3 of 3): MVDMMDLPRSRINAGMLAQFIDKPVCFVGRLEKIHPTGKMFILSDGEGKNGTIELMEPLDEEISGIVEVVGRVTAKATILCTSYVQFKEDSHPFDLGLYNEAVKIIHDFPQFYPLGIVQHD

Binder: TTTTTTTTTTTTTTTTTTTTTTTTTTTTTT (ssDNA) [poly(dT)30-FRET]
- binding result: binds
